Assay results reported in patent WO2022250107A1 (dated 2022).

Experiments:
Experiment in all cases: cell-based or functional assay
[1] = target: S protein of SARS-CoV-2 alpha strain 1 (JPN/QK002/2020, Accession ID EPI_ISL_768526; on infectious virus) (SARS-CoV-2, UniProt P0DTC2 14-1273)
[2] = target: S protein of SARS-CoV-2 delta strain JPN/TKYTK1734/2021 (on infectious virus) (SARS-CoV-2, UniProt P0DTC2 14-1273)
[3] = target: S protein of SARS-CoV-2 alpha strain 2 (Accession ID EPI_ISL_804007; on infectious virus) (SARS-CoV-2, UniProt P0DTC2 14-1273)

Measured: 中和活性 IC50 (inhibition of infection of VeroE6/TMPRSS2 cells)

B1: EV053273 (antibody, V domains shown)
VH: QVQLVQSGAEVKEPGTSVKVSCKASGYIFTGYYIHWVRQAPGQGLEWMGWINPNSGGRNYTQKFQGRVTMTRDKSISTVYMELSGLRSDDTAIYYCARDNSWSTVQFCLDYWGQGTLVTVSS
VL: QSALTQPPSASGSPGQSVTISCTGTSSDVGSYNYVSWYQQYPGKAPKLMIYEVSKRPSGVPDRFSGSKSGNTASLTVSGLQAEDEADYYCSSYGGSNNLVFGGGTKLTVLG
≤ 10 ng/mL: all assays above
